In assay [1] the target is M. tuberculosis open gate 20S core particle (20SOG CP) (M. tuberculosis) (UniProt P9WHU1). Kind of assay: cryo-EM structure.
Assay [2] concerns the target Mpa_(C-EXT) (mycobacterial proteasome ATPase Mpa with a GGGGS linker inserted between Thr601 and Glu (M. tuberculosis) (UniProt P9WQN5)). The assay can be described thus: cryo-EM structure.

Experimental findings from article PMC9599533 are described below.

“And” between values parts separate entries of the source, which are not always exact repeats. Identical values can stand only once.

On to “Mpa_(C-EXT) (mycobacterial proteasome ATPase Mpa with a GGGGS linker inserted between Thr601 and Glu (from UniProt P9WQN5 1-609) (enzyme)”, for which the percent of 20SOG CPs complexed in assay [1] is 50% and 40%. The substance further showed a stoichiometry N in assay [2] of 6.

A word on the stoichiometry N: it is a count of units in the complex or per binding partner.
